These results are taken from patent publication US20230158179A1 (RAYZEBIO, published 2023).

Bridge positions count the residues as written; N and C are the ends. Square brackets hold non-standard residues; d marks the D form. Phe(3-Ph) = N[C@@H](Cc1cccc(-c2ccccc2)c1)C(=O)O; Bip = N[C@@H](Cc1ccc(-c2ccccc2)cc1)C(=O)O; Phe(3-Cl) = N[C@@H](Cc1cccc(Cl)c1)C(=O)O; NMeY = CN[C@@H](Cc1ccc(O)cc1)C(=O)O; NMeF = CN[C@@H](Cc1ccccc1)C(=O)O; Cba = N[C@@H](CC1CCC1)C(=O)O; Chg = N[C@H](C(=O)O)C1CCCCC1 A value given as a limit tells only on which side of the number the result lay.

One assay has as its target T1, Human Serum Albumin (human, UniProt P02768 25-609).
T1 construct: Immobilised on the HPLC column; also called HSA
The assay can be described thus: HSA-HPLC, immobilised HSA column, estimated from retention time; grade legend paragraph 440: 90% < A <= 100%. The text has this:
HSA-HPLC method (measurement of drug protein binding by immobilized human serum albumin-HPLC). A 13-minute HPLC (Thermo Vanquish Horizon with Diode Array Detector) gradient method was used to determine the HSA (Human Serum Albumin) binding of novel compounds using a chemically bonded protein stationary phase (ChiralPAK HSA HPLC column, 50×4 mm). The HSA binding values were derived from the gradient retention times that were converted to the logarithm of the equilibrium constant using data from a calibration set of molecules. The % bound to plasma values for the calibrator compounds were converted to the linear free energy values using the following equation: LogK=log[% PPB/(101−% PPB)]. The logarithmic value of the gradient retention times from the experiment were plotted against the linearized values of the percent bound to plasma. The slope and the intercept were used to convert the retention times to linear free energy values (LogK), from which the estimated % protein binding was calculated using the following equation: % Binding=[(101·10^LogK)/(1+10^LogK)]. Aqueous mobile phase (A) was 50 mM ammonium acetate solution, ph7.4 and the organic mobile phase (B) was 2-propanol. The flow rate was set at 0.350mL/min and injection volume was 5 uL, with samples prepared at 0.5 mg/mL concentration in 50:50 mobile phase. The initial LC conditions were conducted at room temperature, set at 0% B and ramped to 50% B over 8.5 minutes, then held at 50% B for 1.5 minutes before going back to initial conditions and re-equilibrating the column for 2.5 minutes. Chromatograms were recorded at 280 nm by a diode array UV absorption detector.

The target in assay [1] is T2, Trop-2 on Trop-2 expressing cells (A431) (UniProt P09758 27-323, limits assumed).
T2 construct: whole, on cells; also called tumor-associated calcium signal transducer 2
T2 sequence (looked up): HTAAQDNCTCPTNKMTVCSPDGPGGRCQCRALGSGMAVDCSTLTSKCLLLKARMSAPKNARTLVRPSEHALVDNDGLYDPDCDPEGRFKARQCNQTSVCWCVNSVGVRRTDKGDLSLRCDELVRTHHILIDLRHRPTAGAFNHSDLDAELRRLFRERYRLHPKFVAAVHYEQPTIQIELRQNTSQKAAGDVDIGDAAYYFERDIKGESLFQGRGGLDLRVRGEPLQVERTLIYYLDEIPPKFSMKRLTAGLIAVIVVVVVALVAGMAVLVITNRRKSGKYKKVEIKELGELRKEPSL
The assay can be described thus: flow cytometry on A431 cells, procedure of the PSMA cell assay; grade legend paragraph 462: 0 nM < A <= 100 nM.

Assay [2] addresses T3, FOLR1 on FOLR1 expressing cells (IGROV1) (UniProt P15328 25-234, limits assumed).
T3 construct: whole, on cells; also called folate receptor 1
The assay can be described thus: flow cytometry on IGROV1 cells in human plasma/PBS, detection with SA-647; grade legend paragraph 454: 0 nM < A <= 100 nM.

In assay [3] the target is T4, FOLR1-Fc-Avi (AcroBiosystems, F01-H82F9) (UniProt P15328 25-234, biotinylated (immobilised by streptavidin-biotin chemistry)).
T4 construct: Bought reagent; also called folate receptor 1
T4 sequence (P15328 25-234 limits assumed): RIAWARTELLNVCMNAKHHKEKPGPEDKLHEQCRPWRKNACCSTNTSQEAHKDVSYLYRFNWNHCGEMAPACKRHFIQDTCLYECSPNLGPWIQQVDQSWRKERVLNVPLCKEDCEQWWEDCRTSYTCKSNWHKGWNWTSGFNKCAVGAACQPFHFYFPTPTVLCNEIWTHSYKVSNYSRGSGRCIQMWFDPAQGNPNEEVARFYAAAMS
Kind of assay: SPR, Biacore 8K, FOLR1-Fc-Avi immobilised, single cycle kinetics, 1:1 model; grade legend paragraph 444: 0 nM < A <= 10 nM. The procedure: For analysis of peptide binding, a Biacore 8K instrument was used utilizing either a SA chip or a CAP chip. FOLR1-Fc-Avi (AcroBiosystems, F01-H₈₂F9) was immobilized on the chip using streptavidin-biotin chemistry at 25° C. in PBS-P+ buffer (20 mM phosphate, 2.7 mM KCl, 137 mM NaCl, 0.05% Tween-20, pH 7.4) to a level of 500-2500 RU (dependent on the analyte molecular weight). A dilution series of peptides was prepared in this buffer with a final DMSO concentration of 1% with a top peptide concentration at 50 or 100 nM and 8 further 2-fold dilutions. The SPR analysis was run at 25° C. at a flow rate of 100 μL/min in PBS-P+ with 1% DMSO running buffer and with a 120 second association and 10,000 second dissociation using single cycle kinetics methodology. All data was analyzed using Biacore Insight Evaluation Software version 3.) Data was fitted using a Langmuir 1:1 binding model.

In assay [4] the target is T5, His-Avi-PSMA (AcroBiosystems, PSA-H82Qb) (UniProt Q04609 44-750, biotinylated (immobilised by streptavidin-biotin chemistry)).
T5 construct: Bought reagent; also called prostate-specific membrane antigen
T5 sequence (Q04609 44-750 limits assumed): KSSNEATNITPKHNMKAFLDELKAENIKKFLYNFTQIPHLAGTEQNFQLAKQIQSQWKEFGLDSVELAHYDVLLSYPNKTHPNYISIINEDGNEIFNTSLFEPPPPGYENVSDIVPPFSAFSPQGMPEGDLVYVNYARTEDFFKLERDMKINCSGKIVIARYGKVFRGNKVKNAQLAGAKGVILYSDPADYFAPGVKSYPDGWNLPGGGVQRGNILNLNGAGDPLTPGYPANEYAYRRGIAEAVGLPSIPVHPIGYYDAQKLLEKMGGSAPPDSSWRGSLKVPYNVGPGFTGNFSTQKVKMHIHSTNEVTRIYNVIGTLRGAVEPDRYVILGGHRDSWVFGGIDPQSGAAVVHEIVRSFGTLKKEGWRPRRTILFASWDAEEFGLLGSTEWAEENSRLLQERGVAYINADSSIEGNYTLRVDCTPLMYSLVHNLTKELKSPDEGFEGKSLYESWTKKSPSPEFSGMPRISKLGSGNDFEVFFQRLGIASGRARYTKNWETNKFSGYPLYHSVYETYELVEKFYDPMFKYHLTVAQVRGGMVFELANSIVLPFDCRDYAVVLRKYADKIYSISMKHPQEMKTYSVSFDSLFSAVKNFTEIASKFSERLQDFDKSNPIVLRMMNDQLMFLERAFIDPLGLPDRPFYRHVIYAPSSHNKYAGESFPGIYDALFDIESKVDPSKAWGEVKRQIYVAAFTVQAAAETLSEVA
The assay can be described thus: SPR, Biacore 8K, His-Avi-PSMA immobilised, single cycle kinetics, 1:1 model; grade legend paragraph 447: 0 nM < A <= 10 nM. The procedure: For analysis of peptide binding, a Biacore 8K instrument was used utilizing a SA chip. His-Avi-PSMA (AcroBiosystems, PSA-H82Qb) was immobilized on the chip using streptavidin-biotin chemistry at 25° C. in HBS-P+ buffer (10 mM HEPES, 150 mM NaCl, 0.05% Tween-20, pH 7.4) to a level of 800-2200 RU (dependent on the analyte molecular weight). A dilution series of peptides was prepared in this buffer with a final DMSO concentration of 1% with a top peptide concentration between 10-100 nM and 8 further 2-fold dilutions. The SPR analysis was run at 25° C. at a flow rate of 100 μL/min in HBS-P+ with 1% DMSO running buffer and with a 120 second association and 10,000 second dissociation using single cycle kinetics methodology. All data was analyzed using Biacore Insight Evaluation Software version 3. Data was fitted using a Langmuir 1:1 binding model.

Assay [5] addresses T6, PSMA on PSMA expressing cells (LnCap) (UniProt Q04609 1-750, limits assumed).
T6 construct: whole, on cells; also called prostate-specific membrane antigen
Kind of assay: flow cytometry on LnCap cells, biotinylated compound, detection with SA-A647; grade legend paragraph 460: 0 nM < A <= 100 nM.

T3 sequence (P15328 25-234 limits assumed): as the sequence (P15328 25-234 limits assumed) above
T6 sequence (Q04609 whole entry): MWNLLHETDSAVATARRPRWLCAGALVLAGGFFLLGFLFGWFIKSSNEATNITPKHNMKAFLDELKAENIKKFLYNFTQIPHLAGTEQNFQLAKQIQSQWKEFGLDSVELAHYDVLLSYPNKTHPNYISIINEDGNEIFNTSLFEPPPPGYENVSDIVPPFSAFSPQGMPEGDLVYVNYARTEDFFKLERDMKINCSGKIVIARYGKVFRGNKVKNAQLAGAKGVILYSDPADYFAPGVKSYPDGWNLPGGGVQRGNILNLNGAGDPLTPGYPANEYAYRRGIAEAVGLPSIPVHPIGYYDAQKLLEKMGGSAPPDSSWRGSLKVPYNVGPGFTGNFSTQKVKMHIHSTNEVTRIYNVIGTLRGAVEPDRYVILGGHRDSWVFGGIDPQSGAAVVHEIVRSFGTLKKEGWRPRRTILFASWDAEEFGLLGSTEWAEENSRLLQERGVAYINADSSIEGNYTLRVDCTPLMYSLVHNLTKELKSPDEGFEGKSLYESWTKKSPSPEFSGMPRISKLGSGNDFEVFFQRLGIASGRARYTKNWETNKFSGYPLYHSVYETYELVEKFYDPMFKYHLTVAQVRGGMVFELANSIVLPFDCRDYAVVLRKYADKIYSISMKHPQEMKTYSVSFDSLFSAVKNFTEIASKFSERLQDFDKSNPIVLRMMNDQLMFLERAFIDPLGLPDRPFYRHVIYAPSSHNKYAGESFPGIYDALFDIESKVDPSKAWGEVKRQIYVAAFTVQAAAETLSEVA

B1: P-40 (peptide)
peptide: [dA]D[Bip]IYPA[Bip]SSES[NMeF]C-NH2
modifications: bridge N-14; not fully specified (N-terminus, bridges)
notes: The cell assay followed the procedure with biotinylated compounds
Take B1: the “% Bound to HSA at r.t.” value with Human Serum Albumin is above 90%. For the same molecule, the concentration giving a half-maximal response (EC50) in assay [1] is at most 100 nM.

B2: P-10 (peptide)
peptide: ARL[NMeF]DYDT[NMeY][NMeY]WYC-NH2
modifications: bridge N-13; not fully specified (N-terminus, bridges)
notes: The cell assay detects with SA-647, so a biotinylated form was used
On to B2, for which the “% Bound to HSA at r.t.” value with Human Serum Albumin was above 90%. In assay [2], the EC50 is at most 100 nM. The molecule further came in with a Kd in assay [3] of at most 10 nM.
Consider W[Phe(3-Ph)]DVDSD[Cba]W[Phe(3-Ph)]DC-NH2 (bridge N-12; not fully specified (N-terminus, bridges)) [P-21], for which the “% Bound to HSA at r.t.” value in the assay with Human Serum Albumin is above 90%. In assay [4], this molecule gave a Kd of at most 10 nM. The molecule further showed a 50% effective concentration (EC50) in assay [5] of at most 100 nM.

B3: P-11 (peptide)
peptide: DR[Chg][NMeF]D[Phe(3-Cl)]DT[NMeY][NMeY]WYC-NH2
modifications: bridge N-13; not fully specified (N-terminus, bridges)
notes: as for B2
With B3, the “% Bound to HSA at r.t.” value with Human Serum Albumin is above 90%. The molecule further showed an EC50 in assay [2] of at most 100 nM. In assay [3], this molecule came in with a dissociation constant (Kd) of at most 10 nM.
Consider DR[Chg][NMeF]DYDT[NMeY][NMeY]WYC-NH2 (bridge N-13; not fully specified (N-terminus, bridges)) [P-12], for which the “% Bound to HSA at r.t.” value with Human Serum Albumin was above 90%. Besides, in assay [3], the Kd is at most 10 nM.
